According to publication PMC10070494, “WSSV exploits AMPK to activate mTORC2 signaling for proliferation by enhancing aerobic glycolysis”:

Target: rGST (UniProt P08515 1-218)
Experiment: EMSA; 1 and 3 μg rGST; Chemiluminescent EMSA Kit (Beyotime), buffer, salt and pH not stated; competitor 10 min then biotin probe 20 min at 25 °C; native 6% polyacrylamide gel
Settings: protein: recombinant; chain copies: 2; blunt

rGST, sequence (P08515 whole entry): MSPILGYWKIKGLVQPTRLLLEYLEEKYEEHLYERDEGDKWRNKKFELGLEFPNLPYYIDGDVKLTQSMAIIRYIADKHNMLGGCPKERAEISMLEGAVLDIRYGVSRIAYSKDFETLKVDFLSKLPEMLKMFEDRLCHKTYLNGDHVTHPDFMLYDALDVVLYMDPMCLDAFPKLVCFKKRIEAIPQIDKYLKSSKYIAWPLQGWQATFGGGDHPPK

B1: HK-WT probe (dsDNA)
DNA 1: CAAATGACTAGAACGTGCGACATTAGTGAA
DNA 2: TTCACTAATGTCGCACGTTCTAGTCATTTG
B1: no binding.
